Measured values: PMC2756588

T1: Sla1-2, P32790
T1 sequence (P32790 60-140, looked up): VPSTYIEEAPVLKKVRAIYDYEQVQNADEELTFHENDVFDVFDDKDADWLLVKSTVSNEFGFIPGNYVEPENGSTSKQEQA

T2: Lsb1, P53281
T2 sequence (P53281 45-122, looked up): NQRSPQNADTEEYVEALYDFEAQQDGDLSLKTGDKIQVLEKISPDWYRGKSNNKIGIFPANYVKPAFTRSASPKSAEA

T3: Hof1, Q05080
T3 sequence (Q05080 590-669, looked up): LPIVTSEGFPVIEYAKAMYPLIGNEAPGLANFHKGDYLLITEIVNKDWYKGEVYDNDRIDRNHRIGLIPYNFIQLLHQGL

T4: Nbp2, Q12163
T4 sequence (Q12163 103-180, looked up): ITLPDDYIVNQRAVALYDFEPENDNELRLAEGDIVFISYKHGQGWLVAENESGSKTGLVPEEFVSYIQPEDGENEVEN

T5: Bbc1, P47068
T5 sequence (P47068 1-78, looked up): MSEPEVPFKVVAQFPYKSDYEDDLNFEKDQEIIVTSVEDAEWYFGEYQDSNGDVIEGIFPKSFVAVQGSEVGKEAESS

T6: Boi1, P38041
T6 sequence (P38041 1-86, looked up): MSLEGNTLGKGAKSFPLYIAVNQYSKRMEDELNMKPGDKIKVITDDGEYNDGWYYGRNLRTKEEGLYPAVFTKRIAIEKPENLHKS

T7: Sla1-3, P32790
T7 sequence (P32790 344-424, looked up): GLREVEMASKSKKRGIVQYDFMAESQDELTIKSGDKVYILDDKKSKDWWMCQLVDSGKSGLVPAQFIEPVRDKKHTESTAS

T8: Hse1, P38753
T8 sequence (P38753 208-285, looked up): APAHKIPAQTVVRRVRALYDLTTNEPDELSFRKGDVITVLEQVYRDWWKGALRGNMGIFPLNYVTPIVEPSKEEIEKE

T9: Pex13, P80667
T9 sequence (P80667 295-386, looked up): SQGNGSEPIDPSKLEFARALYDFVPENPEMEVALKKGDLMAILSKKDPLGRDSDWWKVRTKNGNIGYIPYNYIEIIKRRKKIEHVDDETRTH

T10: Myo5, Q04439
T10 sequence (Q04439 1072-1160, looked up): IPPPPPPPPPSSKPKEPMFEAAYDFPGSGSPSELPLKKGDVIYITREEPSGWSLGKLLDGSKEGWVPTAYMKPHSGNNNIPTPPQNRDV

T11: Cyk3, Q07533
T11 sequence (Q07533 1-83, looked up): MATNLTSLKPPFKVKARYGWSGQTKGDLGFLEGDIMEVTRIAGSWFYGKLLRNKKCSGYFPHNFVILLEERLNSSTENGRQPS

T12: Pin3, Q06449
T12 sequence (Q06449 53-122, looked up): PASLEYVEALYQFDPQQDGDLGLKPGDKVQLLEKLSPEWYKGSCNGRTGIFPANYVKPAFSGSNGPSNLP

T13: Bzz1-1, P38822
T13 sequence (P38822 478-572, looked up): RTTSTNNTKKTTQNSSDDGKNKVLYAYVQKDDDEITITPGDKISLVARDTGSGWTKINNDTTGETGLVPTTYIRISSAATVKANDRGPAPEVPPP

T14: Bzz1-2, P38822
T14 sequence (P38822 568-633, looked up): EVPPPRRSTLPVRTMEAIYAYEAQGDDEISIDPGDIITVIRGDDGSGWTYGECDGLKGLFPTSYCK

T15: Lsb3, P43603
T15 sequence (P43603 385-451, looked up): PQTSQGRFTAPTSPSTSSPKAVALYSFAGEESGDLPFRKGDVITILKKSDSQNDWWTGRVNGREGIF

T16: Cdc25, P04821
T16 sequence (P04821 50-136, looked up): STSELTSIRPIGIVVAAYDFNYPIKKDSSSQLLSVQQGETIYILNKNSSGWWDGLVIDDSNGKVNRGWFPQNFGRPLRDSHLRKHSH

T17: Bud14, P27637
T17 sequence (P27637 247-328, looked up): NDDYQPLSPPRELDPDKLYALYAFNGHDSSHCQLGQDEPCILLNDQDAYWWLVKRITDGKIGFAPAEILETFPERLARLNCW

T18: Fus1, P11710
T18 sequence (P11710 432-512, looked up): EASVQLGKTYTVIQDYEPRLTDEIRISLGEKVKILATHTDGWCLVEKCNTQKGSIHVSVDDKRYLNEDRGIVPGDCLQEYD

T19: Abp1, P15891
T19 sequence (P15891 535-592, looked up): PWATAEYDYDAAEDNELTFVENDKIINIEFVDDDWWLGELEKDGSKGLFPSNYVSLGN

T20: Lsb4, P32793
T20 sequence (P32793 402-468, looked up): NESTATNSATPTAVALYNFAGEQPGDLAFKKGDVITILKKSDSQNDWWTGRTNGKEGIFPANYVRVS

T21: Boi2, P39969
T21 sequence (P39969 32-116, looked up): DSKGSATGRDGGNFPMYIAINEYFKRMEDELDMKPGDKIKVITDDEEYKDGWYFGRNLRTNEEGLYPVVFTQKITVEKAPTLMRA


What was measured:
Assay in all cases: SPOT array
Sla1-2, P32790 = molecular target: T1, Sla1-2, P32790; details: median of control spots 712
Lsb1, P53281 = molecular target: T2, Lsb1, P53281; details: median of control spots 388
Hof1, Q05080 = molecular target: T3, Hof1, Q05080; details: median of control spots 4086
Nbp2, Q12163 = molecular target: T4, Nbp2, Q12163; details: median of control spots 357
Bbc1, P47068 = molecular target: T5, Bbc1, P47068; details: median of control spots 796
Boi1, P38041 = molecular target: T6, Boi1, P38041; details: median of control spots 1162
Sla1-3, P32790 = molecular target: T7, Sla1-3, P32790; details: median of control spots 5475
Hse1, P38753 = molecular target: T8, Hse1, P38753; details: median of control spots 1727
Pex13, P80667 = molecular target: T9, Pex13, P80667; details: median of control spots 1341
Myo5, Q04439 = molecular target: T10, Myo5, Q04439; details: median of control spots 471
Bem1-1, P29366 = details: median of control spots 4282
Chain of Bem1-1, P29366 (P29366 55-141): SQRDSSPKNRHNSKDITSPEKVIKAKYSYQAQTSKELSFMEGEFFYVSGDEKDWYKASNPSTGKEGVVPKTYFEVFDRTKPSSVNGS

Cyk3, Q07533 = molecular target: T11, Cyk3, Q07533; details: median of control spots 1451
Pin3, Q06449 = molecular target: T12, Pin3, Q06449; details: median of control spots 2171
Sho1, P40073 = details: median of control spots 1148
Chain of Sho1, P40073 (P40073 287-367): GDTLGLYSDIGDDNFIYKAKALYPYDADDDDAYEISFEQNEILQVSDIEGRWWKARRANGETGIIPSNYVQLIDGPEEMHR

Bzz1-1, P38822 = molecular target: T13, Bzz1-1, P38822; details: median of control spots 4446
Bzz1-2, P38822 = molecular target: T14, Bzz1-2, P38822; details: median of control spots 4538
Lsb3, P43603 = molecular target: T15, Lsb3, P43603; details: median of control spots 406
Cdc25, P04821 = molecular target: T16, Cdc25, P04821; details: median of control spots 969
Bud14, P27637 = molecular target: T17, Bud14, P27637; details: median of control spots 956
Bem1-2, P29366 = details: median of control spots 4347
Chain of Bem1-2, P29366 (P29366 139-227): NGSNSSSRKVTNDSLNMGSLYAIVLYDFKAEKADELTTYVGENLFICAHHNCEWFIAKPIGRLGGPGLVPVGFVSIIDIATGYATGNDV

Fus1, P11710 = molecular target: T18, Fus1, P11710; details: median of control spots 1200
Abp1, P15891 = molecular target: T19, Abp1, P15891; details: median of control spots 935
Lsb4, P32793 = molecular target: T20, Lsb4, P32793; details: median of control spots 397
Myo3, P36006 = details: median of control spots 468
Rvs167, P39743 = details: median of control spots 2707
Chain of Rvs167, P39743 (P39743 419-482): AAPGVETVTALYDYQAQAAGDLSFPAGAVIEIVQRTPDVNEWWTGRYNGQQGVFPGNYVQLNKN

Boi2, P39969 = molecular target: T21, Boi2, P39969; details: median of control spots 1161
GST = details: median of control spots 978

Row | Binder | SPOT intensity (Sla1-2, P32790) | SPOT intensity (Lsb1, P53281) | SPOT intensity (Hof1, Q05080) | SPOT intensity (Nbp2, Q12163) | SPOT intensity (Bbc1, P47068) | SPOT intensity (Boi1, P38041) | SPOT intensity (Sla1-3, P32790) | SPOT intensity (Hse1, P38753) | SPOT intensity (Pex13, P80667) | SPOT intensity (Myo5, Q04439) | SPOT intensity (Bem1-1, P29366) | SPOT intensity (Cyk3, Q07533) | SPOT intensity (Pin3, Q06449) | SPOT intensity (Sho1, P40073) | SPOT intensity (Bzz1-1, P38822) | SPOT intensity (Bzz1-2, P38822) | SPOT intensity (Lsb3, P43603) | SPOT intensity (Cdc25, P04821) | SPOT intensity (Bud14, P27637) | SPOT intensity (Bem1-2, P29366) | other results
1 | FFRRSELYLPNSSKA | 0 | 2 | 25 | 14 | 19 | 3 | 53 | 43 | 10 | 0 | 3 | 0 | 1 | 62 | 1 | 5 | 0 | 115 | 10 | 15 | SPOT intensity (Fus1, P11710): 37; SPOT intensity (Abp1, P15891): 22; SPOT intensity (Lsb4, P32793): 0; SPOT intensity (Myo3, P36006): 0; SPOT intensity (Rvs167, P39743): 5; SPOT intensity (Boi2, P39969): 0; SPOT intensity (GST): 0
2 | SRYRRPLTLLLLKPF | 1 | 7 | 15 | 28 | 140 | 16 | 15 | 15 | 16 | 0 | 0 | 3 | 2 | 78 | 0 | 4 | 2 | 236 | 15 | 10 | SPOT intensity (Fus1, P11710): 15; SPOT intensity (Abp1, P15891): 37; SPOT intensity (Lsb4, P32793): 2; SPOT intensity (Myo3, P36006): 8; SPOT intensity (Rvs167, P39743): 7; SPOT intensity (Boi2, P39969): 0; SPOT intensity (GST): 0

More lines, main results first:

Row | SPOT intensity (Sla1-2, P32790) | SPOT intensity (Lsb1, P53281) | SPOT intensity (Hof1, Q05080) | SPOT intensity (Nbp2, Q12163) | SPOT intensity (Bbc1, P47068) | SPOT intensity (Boi1, P38041) | SPOT intensity (Sla1-3, P32790) | SPOT intensity (Hse1, P38753) | SPOT intensity (Pex13, P80667) | SPOT intensity (Myo5, Q04439) | SPOT intensity (Bem1-1, P29366) | SPOT intensity (Cyk3, Q07533) | SPOT intensity (Pin3, Q06449) | SPOT intensity (Sho1, P40073) | SPOT intensity (Bzz1-1, P38822) | SPOT intensity (Bzz1-2, P38822) | SPOT intensity (Lsb3, P43603) | SPOT intensity (Cdc25, P04821) | SPOT intensity (Bud14, P27637) | SPOT intensity (Bem1-2, P29366) | Binder | other results
3 | 0 | 139 | 52 | 100 | 184 | 7 | 245 | 43 | 12 | 0 | 0 | 0 | 0 | 26 | 0 | 13 | 2 | 44 | 13 | 108 | LLRRTIPKRPFYHVL | SPOT intensity (Fus1, P11710): 14; SPOT intensity (Abp1, P15891): 18; SPOT intensity (Lsb4, P32793): 2; SPOT intensity (Myo3, P36006): 0; SPOT intensity (Rvs167, P39743): 31; SPOT intensity (Boi2, P39969): 2; SPOT intensity (GST): 1
4 | 5 | 4 | 0 | 0 | 1 | 0 | 4 | 9 | 110 | 6 | 0 | 0 | 61 | 74 | 0 | 4 | 4 | 9 | 3 | 0 | LLGRKRPVMERVVDI | SPOT intensity (Fus1, P11710): 0; SPOT intensity (Abp1, P15891): 28; SPOT intensity (Lsb4, P32793): 27; SPOT intensity (Myo3, P36006): 10; SPOT intensity (Rvs167, P39743): 5; SPOT intensity (Boi2, P39969): 1; SPOT intensity (GST): 0
